Series [1] deals with the molecule itself. Description: X-ray crystal structure of the NK1-heparin complex, crystal type A; self-association.
Series [2] concerns the molecule itself. Put plainly: BS3 cross-linking with western blot, and gel filtration (Superdex 200), with equimolar 14-mer heparin; self-association. How it is done: (§1) This was carried out by gel filtration chromatography and cross-linking experiments. For gel filtration, wt- or mutant NK1 (0.5 mg/ml) were incubated for 2 hours in the presence or absence of equimolar concentration of 14-mer heparin in phosphate buffered saline (PBS) adjusted to 300 mM NaCl. Samples were then loaded onto an HR30 Superdex 200 column (Ammersham Pharmacia Biotech) and eluted at 0.5 ml/min.
(§2) For cross-linking, 10 μl of wt- or mutant-NK1 (0.1 mg/ml) were incubated in the absence or presence of an equimolar concentration of 14-mer heparin in PBS. After 2 hours incubation at room temperature, 1 μl of crosslinker (BS³, Pierce) was added at 100 fold molar excess, the reaction was continued for 30 minutes and then quenched with 1 μl of 1M Tris-Cl, pH 7.4. Reaction products were loaded onto 15% SDS-polyacrylamide gels and blotted onto a nitrocellulose membrane (Schleicher & Schuell). […] HRP activity was detected after 3 further washes in PBS+0.2% Tween 20 using a chemiluminescent substrate (Pierce).
(§3) Cross-linking (Schwall et al., 1996) and gel filtration (Chirgadze et al., 1999) experiments were employed first in order to characterize heparin-mediated oligomerization of wt NK1 in solution. […] Cross-linked proteins were analyzed by western blotting and detected with an anti-HGF/SF polyclonal antibody (1W53). […]
(In general: A western blot detects proteins with antibodies after separation by electrophoresis.)

Series [3] concerns the molecule itself. Description: BS3 cross-linking with western blot, and gel filtration, with equimolar 14-mer heparin; self-association. How it is done:
as §1, §2, §3

B1: wild-type NK1 fragment of HGF/SF (amino acids 28-210) (ligand)
chain: YAEGQRKRRNTIHEFKKSAKTTLIKIDPALKIKTKKVNTADQCANRCTRNKGLPFTCKAFVFDKARKQCLWFPFNSMSSGVKKEFGHEFDLYENKDYIRNCIIGKGRSYKGTVSITKSGIKCQPWSSMIPHEHSFLPSSYRGKDLQENYCRNPRGEEGGPWCFTSNPEVRYEVCDIPQCSEVE
notes: Expressed in P. pastoris; Forms a head-to-tail dimer in the crystals and a heparin-dependent dimer in solution; also called wt-NK1; wt NK1
As for B1, the binding result in series [1] was “binds”.

B2: NK1 mutant HP11 (R73E:R76E) (ligand)
chain: YAEGQRKRRNTIHEFKKSAKTTLIKIDPALKIKTKKVNTADQCANECTENKGLPFTCKAFVFDKARKQCLWFPFNSMSSGVKKEFGHEFDLYENKDYIRNCIIGKGRSYKGTVSITKSGIKCQPWSSMIPHEHSFLPSSYRGKDLQENYCRNPRGEEGGPWCFTSNPEVRYEVCDIPQCSEVE
notes: N domain reverse-charge mutant of NK1; Expressed in P. pastoris
Regarding B2, the binding result in series [2] is “no binding”.

B3: NK1 mutant 1K1 (K132E:R134E) (ligand)
chain: YAEGQRKRRNTIHEFKKSAKTTLIKIDPALKIKTKKVNTADQCANRCTRNKGLPFTCKAFVFDKARKQCLWFPFNSMSSGVKKEFGHEFDLYENKDYIRNCIIGEGESYKGTVSITKSGIKCQPWSSMIPHEHSFLPSSYRGKDLQENYCRNPRGEEGGPWCFTSNPEVRYEVCDIPQCSEVE
notes: K domain reverse-charge mutant of NK1
Turning to B3, the binding result in series [3] is reported as “binds”.

B4: NK1 mutant 1K2 (K170E:R181E) (ligand)
chain: YAEGQRKRRNTIHEFKKSAKTTLIKIDPALKIKTKKVNTADQCANRCTRNKGLPFTCKAFVFDKARKQCLWFPFNSMSSGVKKEFGHEFDLYENKDYIRNCIIGKGRSYKGTVSITKSGIKCQPWSSMIPHEHSFLPSSYRGEDLQENYCRNPEGEEGGPWCFTSNPEVRYEVCDIPQCSEVE
notes: as for B3
With B4, the binding result in series [3] was “binds”.
